Changes are numbered by the printed parent chain. Names may count otherwise. Blank lines part the entries; values can stand above or below the binder they belong to.
Molecular target: T1, human CCR8 (human, UniProt P51685 1-355)
T1 construct: On stably transfected HEK293 cells or CHO-K1 cells; also called hCCR8
Assay: competition flow cytometry on hCCR8 HEK293 cells; competitor FLAG3-tagged VHH-69

T1 sequence (P51685 whole entry): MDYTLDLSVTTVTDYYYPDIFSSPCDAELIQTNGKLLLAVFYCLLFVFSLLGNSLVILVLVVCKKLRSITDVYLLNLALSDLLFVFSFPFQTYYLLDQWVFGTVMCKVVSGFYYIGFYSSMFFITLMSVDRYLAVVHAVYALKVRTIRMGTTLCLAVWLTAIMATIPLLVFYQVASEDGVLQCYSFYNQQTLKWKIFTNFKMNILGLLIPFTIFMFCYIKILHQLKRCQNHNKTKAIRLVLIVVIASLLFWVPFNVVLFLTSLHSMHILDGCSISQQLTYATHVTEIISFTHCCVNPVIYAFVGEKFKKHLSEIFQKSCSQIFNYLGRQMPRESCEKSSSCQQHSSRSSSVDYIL

IC50: 710 pM
B1: VHH-123 (VHH)
VHH: DVQLVESGGGLVQPGGSLRLSCTASGRTFTNYKSNYKMAWFRQAPGKARAFVGRTDWTGSSAIIANSVKGRFTISRDNAKNTVYLQMNSLRPEDTAVYYCAAGTTIGQYTYWGQGTLVTVSS
notes: also called VHH-69(E1D, N55S, D65G); not shown: C-terminal His6 tag (no FLAG3 tag)

IC50: 250 pM
fold more potent competition IC50 against the control VHH-69(E1D): 2 fold
B2: VHH-124 (VHH)
VHH: B1 VHH with S60K
notes: also called VHH-69(E1D, N55K, D65G); not shown: C-terminal His6 tag (no FLAG3 tag)

Reference: US20240052044A1 (VIB VZW, published 2024)
